Measurements taken from the Immune Epitope Database (IEDB).

Experiments:
HLA-A*02:01 = assay: IEDB peptide-MHC binding, purified MHC/competitive/radioactivity; filed as Kd, often an IC50 or EC50 that approximates it; ≥ and ≤ were set here for values at or beyond the usual limits of such assays
HLA-A*02:03 = assay: as above
HLA-A*02:02 = assay: as above
HLA-A*68:02 = assay: as above
HLA-A*02:06 = assay: as above
HLA-A*33:01 = assay: as above; conditions: source organism: Vaccinia virus WR
HLA-A*31:01 = assay: as above; conditions: source organism: Vaccinia virus WR
HLA-B*54:01 = assay: as above; conditions: source organism: Vaccinia virus WR
HLA-A*03:01 = assay: as above; conditions: source organism: Vaccinia virus WR
HLA-A*11:01 = assay: as above; conditions: source organism: Vaccinia virus WR
HLA-B*35:01 = assay: as above; conditions: source organism: Vaccinia virus WR
HLA-B*07:02 = assay: as above; conditions: source organism: Vaccinia virus WR
HLA-A*68:01 = assay: as above; conditions: source organism: Vaccinia virus WR
HLA-B*53:01 = assay: as above; conditions: source organism: Vaccinia virus WR
HLA-B*51:01 [1] = assay: as above
HLA-A*24:02 = assay: as above
HLA-A*23:01 = assay: as above
HLA-A*26:01 = assay: as above; conditions: source organism: Dengue virus 1 Singapore/S275/1990
HLA-B*18:01 = assay: IEDB peptide-MHC binding, purified MHC/direct/fluorescence; filed as Kd, often an IC50 or EC50 that approximates it; ≥ and ≤ were set here for values at or beyond the usual limits of such assays
HLA-A*29:02 = assay: IEDB peptide-MHC binding, purified MHC/competitive/radioactivity; filed as Kd, often an IC50 or EC50 that approximates it; ≥ and ≤ were set here for values at or beyond the usual limits of such assays; conditions: source organism: Vaccinia virus WR
HLA-B*51:01 [2] = assay: IEDB peptide-MHC binding, purified MHC/competitive/fluorescence; filed as Kd, often an IC50 or EC50 that approximates it; ≥ and ≤ were set here for values at or beyond the usual limits of such assays; conditions: source organism: Yersinia pestis Nepal516
HLA-B*08:01 = assay: IEDB peptide-MHC binding, purified MHC/competitive/radioactivity; filed as Kd, often an IC50 or EC50 that approximates it; ≥ and ≤ were set here for values at or beyond the usual limits of such assays; conditions: source organism: Dengue virus 4 Philippines/H241/1956
[3] = source organism: Human immunodeficiency virus type 1 (SF33 ISOLATE)
[4] = source organism: Vaccinia virus WR
[5] = source organism: Dengue virus 3 Martinique/1243/1999
[6] = source organism: Dengue virus 1 Brazil/97-11/1997
[7] = source organism: Trypanosoma cruzi
[8] = source organism: Lassa virus Josiah
[9] = source organism: Dengue virus 4 Philippines/H241/1956

ALIRILQQL
Kd (HLA-A*02:01; [3]): 28.1 nM | Kd (HLA-A*02:03; [3]): 2.99 nM | Kd (HLA-A*02:02; [3]): 3.31 nM | Kd (HLA-A*68:02; [3]): ≥ 65300 nM | Kd (HLA-A*02:06; [3]): 8.2 nM

ATLMKTSCSK
Kd (HLA-A*33:01): ≥ 70000 nM | Kd (HLA-A*31:01): 411 nM | Kd (HLA-A*02:01; [4]): ≥ 69400 nM | Kd (HLA-A*02:03; [4]): ≥ 70400 nM | Kd (HLA-B*54:01): ≥ 69900 nM | Kd (HLA-A*02:02; [4]): ≥ 70000 nM | Kd (HLA-A*03:01): 33.6 nM | Kd (HLA-A*11:01): 19.9 nM | Kd (HLA-A*68:02; [4]): ≥ 69800 nM | Kd (HLA-B*35:01): ≥ 69900 nM | Kd (HLA-B*07:02): ≥ 21600 nM | Kd (HLA-A*68:01): 4950 nM | Kd (HLA-B*53:01): ≥ 69900 nM | Kd (HLA-B*51:01 [1]; [4]): ≥ 69600 nM | Kd (HLA-A*02:06; [4]): ≥ 69800 nM

AYAQMWSLM
Kd (HLA-A*24:02; [5]): 12.1 nM

CWCNATDTW
Kd (HLA-A*23:01; [6]): 711 nM

DTMTYKCPRI
Kd (HLA-A*68:02; [6]): 64 nM

ETPTWNRKEL
Kd (HLA-A*68:02; [5]): 872 nM

EVDSFSLGLL
Kd (HLA-A*68:02; source organism: Dengue virus 1 Singapore/S275/1990): 146 nM | Kd (HLA-A*26:01): 1930 nM

FANYNFTLV
Kd (HLA-A*02:03; [7]): ≥ 78100 nM | Kd (HLA-A*02:02; [7]): 22.6 nM | Kd (HLA-A*68:02; [7]): 0.0102 nM | Kd (HLA-A*02:06; [7]): 0.00585 nM

FPFGDVWNY
Kd (HLA-B*18:01; source organism: Listeria innocua): 1.4 nM

GARVIWMDAY
Kd (HLA-A*33:01): 505 nM | Kd (HLA-A*31:01): 220 nM | Kd (HLA-A*29:02): ≥ 55600 nM | Kd (HLA-A*03:01): 1020 nM | Kd (HLA-A*11:01): 5510 nM | Kd (HLA-A*68:01): 978 nM

GLVGLVTFLL
Kd (HLA-A*02:01; [8]): 49 nM | Kd (HLA-A*02:03; [8]): 122 nM | Kd (HLA-A*02:02; [8]): 191 nM | Kd (HLA-A*68:02; [8]): 214 nM | Kd (HLA-A*02:06; [8]): 2060 nM

GLYNFATCGL
Kd (HLA-A*02:03; [8]): 2.27 nM | Kd (HLA-A*02:02; [8]): 5.12 nM | Kd (HLA-A*68:02; [8]): ≥ 5000 nM | Kd (HLA-A*02:06; [8]): 218 nM

GWKNWQEVPF
Kd (HLA-A*24:02; [9]): 190 nM | Kd (HLA-A*23:01; [9]): 430 nM

ILNAMITKI
Kd (HLA-A*02:01; source organism: Homo sapiens): 95 nM

IMTSYQYLII
Kd (HLA-A*02:01; [8]): 1000 nM

KEVSGVKGF
Kd (HLA-B*18:01; source organism: Yellow fever virus): 500 nM

LLFASMGFK
Kd (HLA-A*33:01): 2940 nM | Kd (HLA-A*31:01): 55.6 nM | Kd (HLA-A*02:01; [4]): 4830 nM | Kd (HLA-A*02:03; [4]): 183 nM | Kd (HLA-B*54:01): ≥ 78100 nM | Kd (HLA-A*02:02; [4]): 294 nM | Kd (HLA-A*03:01): 0.874 nM | Kd (HLA-A*11:01): 1.71 nM | Kd (HLA-A*68:02; [4]): ≥ 36300 nM | Kd (HLA-B*35:01): ≥ 41600 nM | Kd (HLA-B*07:02): ≥ 77500 nM | Kd (HLA-A*68:01): 12.6 nM | Kd (HLA-B*53:01): ≥ 78200 nM | Kd (HLA-B*51:01 [1]; [4]): ≥ 77500 nM | Kd (HLA-A*02:06; [4]): 16700 nM

LLGMWGIAAI
Kd (HLA-A*02:01; [7]): 14.3 nM | Kd (HLA-A*02:03; [7]): 3.16 nM | Kd (HLA-A*02:02; [7]): 24.3 nM | Kd (HLA-A*68:02; [7]): ≥ 42200 nM | Kd (HLA-A*02:06; [7]): 9.58 nM

LLQYWSQEL
Kd (HLA-A*02:01; source organism: HIV-1 M:B_MN): 189 nM

LPDTGSWGI
Kd (HLA-B*51:01 [2]): ≥ 20000 nM

LSIPPTAGIL
Kd (HLA-B*08:01): 2340 nM | Kd (HLA-B*51:01 [1]; [9]): 9470 nM
